Laboratory results published in the supplement of paper PMC9170038.

Test system: MS2 coat protein
Assay: apparent KD of MS2 coat protein; designed switch direction (-1 OFF switch, 1 ON switch): -1; higher = weaker reporter binding
Method in brief: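 An oligonucleotide input, 200 uM small-molecule ligand, or no input was present during titration of SNAP-549-labelled MS2 coat protein, which was doubled from 0.7 or 1.5 nM to 3 µM. Designed RNA switches had been transcribed on Illumina chips by stalled E. coli RNA polymerase. Apparent KD per design is the median over clusters of curves fitted to normalised cluster fluorescence.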

[1] = Eterna round: R95, input ligand: FMN 200 uM
[2] = Eterna round: R95, input ligand: microRNA oligo, concentration not stated
[3] = Eterna round: R95, input ligand: none
[4] = input ligand: microRNA oligo, concentration not stated

Sequence | apparent KD of MS2 coat protein [1] | apparent KD of MS2 coat protein [2] | apparent KD of MS2 coat protein [3] | apparent KD of MS2 coat protein (input ligand: FMN 200 uM) | apparent KD of MS2 coat protein [4] | apparent KD of MS2 coat protein (input ligand: none)
UUUAAUUUUUUUUUUUUACAAGCUUUUUGCUCGUCUUAUACAUGAGGAUCACCCAUGUAGGUGAGAAGUAAAUUAUC [JMF 49] (puzzle: Sensor v3, turn-off variant 2) | 19.3 nM | 168 nM | 23.3 nM | – | – | –
UUUUUACAUGAAGGAUAUACUUAACAUGAGGAUCACCCAUGUGGUGUUGUGAGUGAGUGAGUUUAGUAGAAGGUCAAUUAUUUU [JMF's solution 22] (Eterna round: R96, puzzle: Exclusion NG 2) | – | – | – | 556 nM | 241 nM | 314 nM
UUUUUUGGGCAAGGAUAUCCUGUGCGGUUCCGGCUCGUGUCUGUUACAUGAGGAUCACCCAUGUGGGAGAAGGUGCCUGUGGUU [Design 86] (Eterna round: R96, puzzle: Exclusion NG 2) | – | – | – | 183 nM | 37.3 nM | 43 nM
CUCUUGUUAGGAUAUCAAACCGGCGGCGGAGCCACCGGAAGUGAGAAGGGACAUGAGGAUCACCCAUGUAAGAA [Islaariste] (puzzle: Exclusion 4) | 220 nM | 60.9 nM | 67.3 nM | – | – | –
AAAUUGGUAGAGGAUAUCGGACAGGAUUUACUGCGAGAAGGCUGCACAUGAGGAUCACCCAUGUUUUGUUGCGA [EX6 #34] (Eterna round: R97, puzzle: Exclusion 6) | – | – | – | 23.9 nM | – | 25.7 nM
GGUAAGCUAGGAUAUGCUUUGGGAAAGCAUUCCUUCGAUAAACUUGAGGAUCACCCAAGUAGAAGGAGCUUACC [salish99_ex2_r4_016] (Eterna round: R97, puzzle: Exclusion 2) | – | – | – | 19.8 nM | – | 11.8 nM
AGGUUGUGAGGAUAUUAGUUAUAUGUUUGGAGGUGUAUGGCUGAGAAGGCACAUGAGGAUCACCCAUGUAGAUC [JR_Ex4_Sub049] (Eterna round: R97, puzzle: Exclusion 4) | – | – | – | 301 nM | – | 175 nM
GUGUACGGAGGAUAUAUGUGGGCAGCAUACGCUGCAGCUUCACAUGAGGAUCACCCAUGUAGAAGGCUGUACAC [Mat - Exclusion 2 - Mod of Hyphema - D102] (puzzle: Exclusion 2) | – | 21.4 nM | – | – | – | –
GAUCUGGCAGGAUAUACAUGAGGAUCACCCAUGUGCGAGCUAGCGAAAGCUAGCUCAGGUAGAAGGGUCAGAUC [Ex3 dot plot directed v1] (puzzle: Exclusion 3) | – | 10.8 nM | – | – | – | –
GAAAAGGUAGGAUAUACGAUAAGAAAGGGUAGAGAAGAAACACAUGAGGAUCACCCAUGUAGAAGGACCAAAAG [salish99_ex2_r3_100] (puzzle: Exclusion 2) | 146 nM | 23.6 nM | 33.2 nM | – | – | –
UUAUUAUAUGAAGGAUAUACUUAACAUGAGGAUCACCCAUGUGGUGUUGUGAGUGAGUGAGUUUAGUAGAAGGUCAAGUAUUUU [JMF's solution 51] (Eterna round: R96, puzzle: Exclusion NG 2) | – | – | – | 417 nM | 494 nM | 341 nM
UUUAAUUUUUUUUUUUUACAAGCUUUUUGCUCGUCUUAUACAUGAGGAUCACCCAUGUGAGUGGGAAAUGAAUUAUC [JMF 100] (puzzle: Sensor v3, turn-off variant 2) | 99 nM | 218 nM | 111 nM | – | – | –
CUCCUCAUGGCGCCUAAACACAUGAGGAUCACCCAUGUGCAGGCUUUUUGCCGUCUUAUAAUAAAACCGAGGAUGCG [Vegequ] (puzzle: Sensor v3, turn-off variant 1) | 16.9 nM | 77.8 nM | 16.2 nM | – | – | –
UUGUCGUGUGUAGGAUAUCGUUGGCGUUCGCCGCGAGAAGGACAUGAGGAUCACCCAUGUGCGUCAGGGUCGUCCACAGGUGAU [-27/-25 Kcal and A 19%] (Eterna round: R96, puzzle: Exclusion NG 1) | – | – | – | 663 nM | 281 nM | 371 nM
ACAAGCUGGCUCGUCUUAUACAUGAGGAUCACCCAUGUUCUCAAGGUCUUAUGUACUGACACGAAAGUGUUAGUAAU [AK-miRNA-r3-2] (Eterna round: R97, puzzle: Sensor, turn-off variant 1) | – | – | – | 29.8 nM | – | 30.2 nM
AGUAGAUCUACGCUUGCGUGGAUCUGCAAUGCAAGUGUUACAUGAGGAUCACCCAUGUCCUCAUUUGCUCGUCUUAU [JL turnoff v2 99.04] (puzzle: Sensor v3, turn-off variant 2) | 42.2 nM | 108 nM | 40.9 nM | – | – | –
AUAAUAAAGGAGGAUAUCGUUUCGGAAACGAAACGAGAAGGUCUAACAUGAGGAUCACCCAUGUUCCUCAAAUA [Mat - Exclusion 6 - Eli Mod - D52] (puzzle: Exclusion 6) | 66.4 nM | 33.3 nM | 53.5 nM | – | – | –
UAAGAUUACCGAGGAUAUGCUGGUUUCUCUUAAGCAGAAGGCGGACUCAACAUGAGGAUCACCCAUGUAAGAAGGGUAUUAGAU [Ex NG1 #10] (Eterna round: R96, puzzle: Exclusion NG 1) | – | – | – | 85.9 nM | 78.6 nM | 116 nM
UACCUGAGGCUUUGCUUUAGGUUUACAUGAGGAUCACCCAUGUAGGAUAUGGUAGGCUUUGCUUACCAGAAGGACAUGUUAAUU [JL ENG3 1.08] (Eterna round: R96, puzzle: Exclusion NG 3) | – | – | – | 190 nM | 64.9 nM | 59.9 nM
CAGCGGUGAGGAUAUACGUAGGUACAGAUCUGUGUGUUCCUACAUGAGGAUCACCCAUGUAGAAGGCAUGGCUG [LRO-Excl2-11] (puzzle: Exclusion 2) | – | 37.1 nM | – | – | – | –
UUAUGUAAUGUAGGAUAUCGGUCAGUUUCUGAUCGAGAAGGACAUGAGGAUCACCCAUGUAAGGCUACCGGUUUCUGGUGGCCU [JL ENG1 3.51] (Eterna round: R96, puzzle: Exclusion NG 1) | – | – | – | 137 nM | 20.7 nM | 28.5 nM
AACCGGGCGGCAGGAUAUCCAGAUUAAUUGUGGUAGUCCUGACAUGAGGAUCACCCAUGUGAAAAGGAGAAGGGCCGGAAAUUA [Onona] (Eterna round: R96, puzzle: Exclusion NG 2) | – | – | – | 437 nM | 64.1 nM | 122 nM
UUUUUAUAUGAAGGAUAUACUUAACAUGAGGAUCACCCAUGUGGUGUUGUGAGUGAGUGAGUUUAGUAGAAGGUCAAAGAUUUU [JMF's solution 57] (Eterna round: R96, puzzle: Exclusion NG 2) | – | – | – | 1550 nM | 304 nM | 295 nM
ACUAGAUGAGGAUAUGCAUAUUUUCGUGUUCUUCUAGGUUAACAUGAGGAUCACCCAUGUAGAAGGCGUCUGGA [Exclusion 2 - 21] (puzzle: Exclusion 2) | – | 20 nM | – | – | – | –
CUGGUCCGAGGAUAUAUUUUGUGAAACAUGAGGAUCACCCAUGUAAUAAAAUGGAUGUAAAUAGAAGGCGGACUAG [Mat - Exclusion 5 - JL mod - D40] (puzzle: Exclusion 5) | 26.7 nM | 29 nM | 30 nM | – | – | –
